Measurements as given in patent US20260232732A1 (FUNDACI INSTITUT DE RECERCA CONTRA LA LEUC MIA JOSEP …, published 2026).
Where no end group is shown, it is not given here. The star is where a group is joined. Biotin = O=C1N[C@H]2[C@H](CS[C@H]2CCCCC(=O)*)N1

Tests used:
[1] = molecular target: T1, naked peptide TDFTSPIPNM (human); test: ELISA, naked peptide
T1 peptide: TDFTSPIPNM

[2] = molecular target: T2, biotin-peptide TSSMEDYVNF (human); test: ELISA biotin-peptide; scFv 5 ug/mL; repI
T2 peptide: Biotin-TSSMEDYVNF
Procedure: (§1) The peptides were synthesized naked or with a N-terminal Biotin modification with a purity of >98%. All four scFvs were verified by ELISA that can be detected with anti-His antibodies. ELISA was performed for scFv-peptide binding validation. Briefly, naked peptides were coated (50 μg/mL) in 0.58M carbonate-bicarbonate buffer pH9.5, 100 μL/well, 4° C. O/N. Then after blocking (3% BSA-PBS, 300 μL/well 37° C. 1.5 h) and washing (PBS+Tween-20 0.05% v/v (0.05% PBST), wells were incubated with each purified scFv antibody at concentration of 1 μg/mL in PBS at 37° C. 1 h. After washing (0.05% PBST), wells were incubated with secondary antibodies (goat anti-His IgG-HRP) in PBS, 37° C., 30 min. After washing, and incubation with TMB substrate, reactions were stopped with 2M HCl and reading was quantified at OD450.
(§2) ELISA with biotin-conjugated peptides (5 μg/mL) was performed very similar to described above with minor modifications.
(§3) A full curve ELISA was performed for each positive scFv/biotin-peptide pair in order to confirm previous results. Tables 15-17 show ELISA results of the dose-dependent full curve for each positive peptide with scFv “CCR9_HUM”, “Comp-2” and “Comp-3”, respectively.

[3] = molecular target: T3, biotin-peptide SSMEDYVNFN (human); test: ELISA biotin-peptide; scFv 5 ug/mL; repI
T3 peptide: Biotin-SSMEDYVNFN
Procedure: as §1, §2, §3

[4] = molecular target: T4, biotin-peptide SMEDYVNFNF (human); test: ELISA biotin-peptide; scFv 5 ug/mL; repI
T4 peptide: Biotin-SMEDYVNFNF
Procedure: as §1, §2, §3

[5] = molecular target: T5, biotin-peptide MEDYVNFNFT (human); test: ELISA biotin-peptide; scFv 5 ug/mL; repI
T5 peptide: Biotin-MEDYVNFNFT
Procedure: as §1, §2, §3

[6] = molecular target: T2, biotin-peptide TSSMEDYVNF; test: ELISA biotin-peptide; scFv 1.25 ug/mL; repI
Procedure: as §1, §2, §3

[7] = molecular target: T3, biotin-peptide SSMEDYVNFN; test: ELISA biotin-peptide; scFv 1.25 ug/mL; repI
Procedure: as §1, §2, §3

[8] = molecular target: T4, biotin-peptide SMEDYVNFNF; test: ELISA biotin-peptide; scFv 1.25 ug/mL; repI
Procedure: as §1, §2, §3

[9] = molecular target: T5, biotin-peptide MEDYVNFNFT; test: ELISA biotin-peptide; scFv 1.25 ug/mL; repI
Procedure: as §1, §2, §3

[10] = molecular target: T2, biotin-peptide TSSMEDYVNF; test: ELISA biotin-peptide; scFv 1.25 ug/mL; repII
Procedure: as §1, §2, §3

[11] = molecular target: T3, biotin-peptide SSMEDYVNFN; test: ELISA biotin-peptide; scFv 1.25 ug/mL; repII
Procedure: as §1, §2, §3

[12] = molecular target: T4, biotin-peptide SMEDYVNFNF; test: ELISA biotin-peptide; scFv 1.25 ug/mL; repII
Procedure: as §1, §2, §3

[13] = molecular target: T5, biotin-peptide MEDYVNFNFT; test: ELISA biotin-peptide; scFv 1.25 ug/mL; repII
Procedure: as §1, §2, §3

[14] = molecular target: T6, Peptide 3-BSA (SSMEDYVNFN-C conjugated to BSA) (human); test: ELISA; Ab 0.25 ug/mL; repI
T6 peptide: SSMEDYVNFNC(BSA)
Procedure: (§4) In brief, plates with each non-conjugated peptide (50 μg/mL) or BSA-conjugated peptide (5 μg/mL) were coated in 0.58M carbonate-bicarbonate buffer pH9.5, 100 μL/well, at 4° C. […] After washing, wells were incubated with the 3, 3′,5,5′-Tetramethylbenzidine (TMB) HRP substrate and reactions were stopped with 2M HCl and OD450 was recorded.

[15] = molecular target: T7, Peptide 4-BSA (SMEDYVNFNF-C conjugated to BSA) (human); test: ELISA; Ab 0.25 ug/mL; repI
T7 peptide: SMEDYVNFNFC(BSA)
Procedure: as §4

[16] = molecular target: T8, Peptide 1, non-conjugated (MADDYGSEST-C) (human); test: ELISA; Ab 0.25 ug/mL; repI
T8 construct: With the extra C-terminal Cys
T8 peptide: MADDYGSESTC
Procedure: as §4

[17] = molecular target: T9, Peptide 2, non-conjugated (GSESTSSMED-C) (human); test: ELISA; Ab 0.25 ug/mL; repI
T9 construct: With the extra C-terminal Cys
T9 peptide: GSESTSSMEDC
Procedure: as §4

[18] = molecular target: T10, Peptide 3, non-conjugated (SSMEDYVNFN-C) (human); test: ELISA; Ab 0.25 ug/mL; repI
T10 construct: With the extra C-terminal Cys
T10 peptide: SSMEDYVNFNC
Procedure: as §4

[19] = molecular target: T11, Peptide 4, non-conjugated (SMEDYVNFNF-C) (human); test: ELISA; Ab 0.25 ug/mL; repI
T11 construct: With the extra C-terminal Cys
T11 peptide: SMEDYVNFNFC
Procedure: as §4

[20] = molecular target: T12, BSA (negative control coating) (bovine, UniProt P02769 25-607); test: ELISA; Ab 0.25 ug/mL; repI
T12 construct: also called Negative control BSA
T12 sequence (P02769 25-607 limits assumed): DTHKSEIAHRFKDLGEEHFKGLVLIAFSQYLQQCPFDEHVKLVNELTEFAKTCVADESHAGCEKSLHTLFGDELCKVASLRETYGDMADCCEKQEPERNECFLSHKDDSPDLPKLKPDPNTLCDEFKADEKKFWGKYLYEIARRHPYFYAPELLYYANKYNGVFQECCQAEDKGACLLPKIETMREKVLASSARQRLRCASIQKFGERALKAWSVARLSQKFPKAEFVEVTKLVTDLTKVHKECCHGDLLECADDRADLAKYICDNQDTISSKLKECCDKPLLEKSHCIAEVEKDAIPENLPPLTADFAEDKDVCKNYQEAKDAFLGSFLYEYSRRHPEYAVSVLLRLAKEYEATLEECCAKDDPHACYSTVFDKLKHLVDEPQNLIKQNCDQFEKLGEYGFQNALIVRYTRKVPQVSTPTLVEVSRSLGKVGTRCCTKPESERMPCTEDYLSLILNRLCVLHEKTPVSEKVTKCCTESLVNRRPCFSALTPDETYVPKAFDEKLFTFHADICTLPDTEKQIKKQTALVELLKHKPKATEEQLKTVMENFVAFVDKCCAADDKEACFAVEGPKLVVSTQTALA
Procedure: as §4

[21] = molecular target: T13, antigen peptide-BSA (immunisation peptide #1 MADDYGSESTSSMEDYVNFNF-C conjugated to BSA) (human, extra C-terminal Cys conjugated to BSA); test: ELISA; Ab 0.25 ug/mL; repI
T13 construct: also called Positive control antigen peptide-BSA; MADDY peptide
T13 peptide: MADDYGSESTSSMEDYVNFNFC
Procedure: as §4

[22] = molecular target: T14, Peptide 1-BSA (MADDYGSEST-C conjugated to BSA) (human); test: ELISA; Ab 0.25 ug/mL; repI
T14 peptide: MADDYGSESTC(BSA)
Procedure: as §4

[23] = molecular target: T15, Peptide 2-BSA (GSESTSSMED-C conjugated to BSA) (human); test: ELISA; Ab 0.25 ug/mL; repI
T15 peptide: GSESTSSMEDC(BSA)
Procedure: as §4

[24] = molecular target: T11, Peptide 4, non-conjugated (SMEDYVNFNF-C); test: ELISA; Ab 0.125 ug/mL; repI
Procedure: as §4

[25] = molecular target: T13, antigen peptide-BSA (immunisation …); test: ELISA; Ab 0.125 ug/mL; repI
Procedure: as §4

[26] = molecular target: T15, Peptide 2-BSA (GSESTSSMED-C conjugated …); test: ELISA; Ab 0.125 ug/mL; repI
Procedure: as §4

B1: Comparative antibody 1 (Comp-1) scFv, SEQ ID NO: 10 from WO2023/037125 A1, His-tagged (scFv)
scFv: QVQLKESGPGLVQPSQTLSLTCTVSGFSVASYDMHWVRLPPGKGLEWMGIIWANGNTHYNSGLKSRLSISRDTSKSQVFLKMNSLQTEDTAIYFCTRGGFAYWGQGTLVTVSSGGGGSGGGGSGGGGSGGGGSDVVMTQTPVSLSVSLGGQVSISCRSSQSLVHNNGNTYLSWYLQKPGQSPQLLIYKVSNRFSGVSDRFSGSGSGTDFTLKISRVEPDDLGVYYCGQGTQYPTFGGGTKLELKHHHHHH
- binding result [1]: no binding (tested: 1 ug/mL)

B2: CCR9_HUM2 scFv (humanized anti-CCR9 scFv, SEQ ID NO: 17 with C-terminal 6xHis tag) (scFv)
scFv: QVQLVQSGAEVKKPGASVKVSCTASGYSFTDYIIYWVKQAHGQSLEWMGYIDPNNYNTRYSQKFQGKVTITVDKSSTSAYMELNSLTSDDTAVYYCARDVYWGQGTTVTVSSGGGGSGGGGSGGGGSGGGGSDVVMTQTPLSLSVTPGQPASISCRSSQSLVHSNGKTYLQWYLQKPGQSPKLLIYKVSNRFSGVPDRFSGSGSGTDFTLKISRVEAEDVGVYFCAQSTHVWTFGGGTKVEIKRAHHHHHH
- OD450 [2]: 1.47 OD
- OD450 [3]: 1.86 OD
- OD450 [4]: 1.78 OD
- OD450 [5]: 1.71 OD
- OD450 [6]: 1.18 OD
- OD450 [7]: 1.74 OD
- OD450 [8]: 1.73 OD
- OD450 [9]: 1.54 OD
- OD450 [10]: 1.23 OD
- OD450 [11]: 1.77 OD
- OD450 [12]: 1.72 OD
- OD450 [13]: 1.49 OD

B3: anti-CCR9 antibody clone 115 (murine, from hybridoma #115) (antibody, V domains shown)
VH: QVQLKQSGPELVKPGTSVRVSCTASGYSFTDYIIYWVKQSHGRSLEWIGYIDPNNYNTRYSQKFKGKATLTVDKSSTSAFMHLNSLTSDDSAVYYCARDVYWGQGTTLTVSS
VL: DVVMTQTPLSLTVSLGDQASISCRSSQSLVHSNGKTYLQWYLQKPGQSPKLLIYKVSNRFSGVPDRFSGSGSGTDFTLKISRVEAEDLGVYFCAQSTHVWTFGGGTKLEIKR
notes: Mouse IgG1
- OD450 [14]: 1.95 OD
- OD450 [15]: 2.46 OD
- OD450 [16]: 0.02 OD
- OD450 [17]: 0.02 OD
- OD450 [18]: 1.89 OD
- OD450 [19]: 2.09 OD
- OD450 [20]: 0.01 OD
- OD450 [21]: 2.29 OD
- OD450 [22]: 0.02 OD
- OD450 [23]: 0.02 OD
- OD450 [24]: 1.69 OD
- OD450 [25]: 2.15 OD
- OD450 [26]: 0.01 OD
